From the DeepSol protein solubility set

Assay: soluble on expression in E. coli; label from the status in PepcDB or PDB records
For “VLHAIEPLNLGPKPIFVHEQGLLVEWIDGITLTKDGIELEELLPIAATIHQYHSSSIPVVPFSYISRIDHYWLELEGKYVGSEFETLYKQWRSEPSVEQIPLALCHFDLGCYNLVRGDQGVKVIDWEYASLADPRLDL”, the “soluble on expression in E. coli” value was “not soluble”. In the case of “MSDNDDDFMCDDDEDYGLEYSEDSNSEPDVDLENQYYNSKALKEEEPKAALASFQKVLDLENGEKGEWGFKALKQMIKINFRLCNYDEMMVRYKQLLTYIKSAVTRNHSEKSINSILDYISTSKNMALLQNFYETTLDALRDAKNDRLWFKTNTKLGKLYFDRSDFTKLQKILKQLHQSCQTDDGEDDLKKGTQLLEIYALEIQMYTVQKNNKKLKALYEQSLHIKSAIPHPLIMGVIRECGGKMHLREGEFEKAHTDFFEAFKNYDESGSPRRTTCLKYLVLANMLMKSGINPFDSQEAKPYKNDPEILAMTNLVNSYQNNDINEFETILRQHRSNIMADQFIREHIEDLLRNIRTQVLIKLIRPYKNIAIPFIANALNIEPAEVESLLVSCILDDTIKGRIDQVNQVLQLDKINSSASRYNALEKWSNQIQSLQFAVVQKMA”, the “soluble on expression in E. coli” value is reported as “soluble”. With “GAVGLTIRSNITYSKNEIVDRDEENNYYWYKMQKGHRVNQARGLISLGLFKDYDDIRNSPVQDFDGYKVMPGDIKYKDVNGDGKIDGNDQVAIGATTKPNLIYGFGIAANWKGLDVNLHFQGAGKSTYFIDGSTVHMFKLGDGWGNVLSEMANSNRWISADISGDPATENPNAEYPRLSYGPNSNNYQQSTYWLRNGSYLRLKTVEVGYTLPTQLVNKVHFNTVRIFFVGTNLLTWSAFKLWDPEMGSTDGKRYPLSKNLSLGISVNL” the “soluble on expression in E. coli” value was “not soluble”. In the case of “MAHHHHHHMRRTAFSLMIVPPESHRYAKATFHEGVHRQAPGDSTPWRDVASPLNRFKMWWLAPAAKGTMTAAWCMTIVMGAYCFSIQQDAKGTYLLNNVLLRTLHEEAMRADANQERANELQEYLKQRLEKLEAGGKAASRNMGGDAVKEGLINHELEISRERVRSDSIHQRNQQLVDELLKVRQELAVTRKKHSAALSEIDKLQKLLKACT”, the “soluble on expression in E. coli” value is reported as “not soluble”. For “MSLKPRIAIVGLGLIGGSLARRLVNAGCEVTAWNHNDRPYATAEADGIICKPTLAALAETKPNVLVLCNPLKAMPEILGALKPLIDTETTTLTDVGSVKGMVRDQVKAIGLDGCYVGAHPMAGNELSGWEASDPTLYDDALWAITVDEHTEYRRFRAVADMIVNRCGNRLIVLDDATHDRCAALISHMPHVIATAMINELVANPNRNIAAALAAGSWRDMTRVALTDPNRTRAMVEEDAANVETLLRNMANRLTLVANVLHDMADTGVRPTEGDVKQMDRFFAQGQPFRDYKAASRQPEYAEHCATVELSIPENDWQRTLLESARRGEHIVRFDGERTAIAQARSVEGHHHHHH”, the “soluble on expression in E. coli” value was “soluble”. With “MRAASTSKPVGAHEETGHLGGAHSTYVSSAQVTNAEHENELQVVDLPRAPPSLSKAVTYFYITGFGRFALMEDNPTERVVLRLREILQDPGRVQMLHERLVRIVDLRILEVSAAAAHETLAEMKTQCLQMRQKPNISSDGRNRTVCFLHLGVDASADGFLVERSAVNEALFRFPDERGWQPTTPIPIVRGAQLGARYELDGEALASLCERTESLLNEWGRTNWTVRVNDDAGRFLCNYLFYLSAFEGLAENGHHLWQTFFLHCPMETVAPLDVQVDVVLAFMVAVAQSNAQQGPLEGILAR” the “soluble on expression in E. coli” value was “soluble”. With “STQTSRVTLVGEMLPAYNEILTPEALSFLKELHENFNERRIELLQKRMKKQQKIDAGEFPKFLEETKRIREADWTIAKLPKDLEDRRVEITGPVDRKMVINALNSGAHLFMADFEDSNSPTWENAIEGQINLRDAVKGTISHKNENGKEYRLNSKTAVLIVRPRGWHLEEKHMQVDGKNMSGSLVDFGLYFFHNAKALLEKGSGPYFYLPKMESYLEARLWNDVFVFAQKYIGIPNGTIKATVLLETIHASFEMDEILYELKDHSAGLNCGRWDYIFSFLKAFRNHNEFLLPDRAQVTMTAPFMRAYSLKVIQTCHRRNAPAIGGMAAQIPIKNNPEANEAAFEKVRADKEREALDGHDGTWVAHPGLVPVAMEVFNHIMKTPNQIFRKREEIHVTEKDLLEVPVGTITEEGLRMNISVGIQYIASWLSGRGAAPIYNLMEDAATAEISRAQVWQWIRHEGGKLNDGRNITLELMEELKEEELAKIEREIGKEAFKKGRFQEATTLFTNLVRNDEFVPFLTLPGYEIL” the “soluble on expression in E. coli” value was “soluble”. With “MGSDKIHHHHHHMEMLEEHRCFEGWQQRWRHDSSTLNCPMTFSIFLPPPRDHTPPPVLYWLSGLTCNDENFTTKAGAQRVAAELGIVLVMPDTSPRGEKVANDDGYDLGQGAGFYLNATQPPWATHYRMYDYLRDELPALVQSQFNVSDRCAISGHSMGGHGALIMALKNPGKYTSVSAFAPIVNPCSVPWGIKAFSSYLGEDKNAWLEWDSCALMYASNAQDAIPTLIDQGDNDQFLADQLQPAVLAEAARQKAWPMTLRIQPGYDHSYYFIASFIEDHLRFHAQYLLK” the “soluble on expression in E. coli” value was “not soluble”. With “MSLTELYAKSDLEKIKETLPGWQLDSFNYLNEKIGDKENKFPCIPGRQAFLSDQLRIAFVGDPRNPETAKELAPLLTRYGTISRETGKYASLTVIFHTPEELLTDYKIEDYESLFWQLLNSLSMEDPADWPDDIPENPDNFQWEYCFNGEPYFVLCATPAHSKRKSRSFPYFMLTFQPRWVFEDLNDTTAFGRNMSKQIRKRLEAYDEVPIHPHLGWYGKKDNLEWKQYFLRDDENQVSQCPFMKMKNLFKKERSDEGHHHHHH” the “soluble on expression in E. coli” value was “soluble”. For “MHEQLNSRVETCYLQAETFFKRTFKRPVVSFQLRGQKAGVAHLHENLLRFNPQLYQENAEDFLRQTVPHEVAHLVAHQLFGGGIQPHGEEWQLIMRGVYELPPNRCHTYAVQRRSVIRYIYRCPCPDSDFPFTSQRHSMVRKGRRYLCRRCREPLMFSGETRTELEHHHHHH”, the “soluble on expression in E. coli” value was “not soluble”. With “MLSPDNVFIAIKPVDMRRGIDSLTQYIQDELRSTWHEGAAFVFVNKARSRIKVLRWDKHGVWLCTRRLHKGSFRWPRANDAAWHLTPDEFNWLIAGVDWQQVKGHDLTKWVWQNEPELRPENTQNTLLTQ” the “soluble on expression in E. coli” value was “not soluble”. For “MAHHHHHHMACDDSTKRNAAAVNRLLQKTRAATAPNSQWLNSITRREDGTLSNELHLSNQQRLACEMGVFPKGHFGDVEIEEENPQRSCHALAQRRARHEWKTDEEAKRRLQIGRGEVCNKRELRAAARREAAILRYEMTLPRRRVVGHLSHLMPAQADASLAVPTEGAADALVEKGCGRWVLHNSYRQQLLHGEPVMTRIMRGEFYETKPPPQRKKKVWAAGKRHVRMTSEVNRLMNTGGWCR”, the “soluble on expression in E. coli” value was “not soluble”. With “MGSDKIHHHHHHMVDCDRIDRLIAAVPPALALRAGLDLGIFTRLGGDAATADSLGAALKVEPDRLSRLLYALASIDLLEVKDGQFRNGAEASAFLDASKPTYRGGDHALLRELWGADLLTAESLRQNRPAALHDFSEAGPEAAAAFSRMLAPGGVIFGRHLAREIDLSAIGSVIDIGGGAGTILVGLRERRRQIAATLMELPTVAAVAPAILSEYGADDVIVEEGDITVAPSIGRHDLAILKAVVQVLPPDQARNAILNAARCLTPGGEIAIAGWGVVDDDRLGPSEGVFLNLTFLNLYRHGESYTEGQYRAWMTEAGFRNISRSRLTDGTALFRGRLTD” the “soluble on expression in E. coli” value was “not soluble”. With “MNYQDNSLKSLKLGQKTEYASQYDRTLLQPVPRALNRDGLGITQNQPFTIGADIWTAYEISWLNEKGLPQVAIADIYLDYQSQNLIESKSFKLYLNSFNQSKFADFNAVQQTMQRDLSECAQGDVKVRLNPMAVYDSQKIDHLQGDCIDEQDIEITSYEFNANWLKDCVSDEIVEEKLVSHLLKSNCLITNQPDWGTLHIHYVGKKINQEKLLRYVVSFRQHNEFHEQCVERIFCDLMHYAKPEKLTVYARYTRRGGLDINPFRSNFENLPENLRLARQ” the “soluble on expression in E. coli” value was “soluble”. In the case of “MSLIITDDHMHLYNHLKLKALEQFRDAGGTHVFLVNLLCHHYGIRPTSGKDFREVFERHLSLVEKANKIVKAYAVLGVHPAEITVIGDRIGHEKAAEMMKEALEIAGKYVEEGKAVALKSGRPHYPVSRHVWQLSNDVLRHAFEVAKDVGCAIQLHTESYTKEGMLEIAKMADEVGLKREKVVKHFSPPLIKEFEEIGIFPSVLAGNNNVLKAAEQGNRFTVETDYIDDRKRPGAVLGPKTVPRKVKELIELGYEDIAYKICVENVEKVYGVELEEEGHHHHHH”, the “soluble on expression in E. coli” value is reported as “soluble”. For “GMPNFSKNEEVLFSAVNEIFEEKIPFNKIIGLKVRFISPEQVKLSFEMRDELIGNAIRRMLYGGVISSAIDMTAGLAAFMGFQEKMSGKPMEEKLAMIGRLSTMSLHVEYLRPGLGREFVCTGYNVRTGNKVAVIRTELMNDQDELIAVGSVSYILV”, the “soluble on expression in E. coli” value was “soluble”.
